The series deals with the molecule itself. In words: SEC; Superdex G200 10/300 column, 50 mM HEPES buffer pH 7.5, 300 mM NaCl, 5% (v/v) glycerol; native mass 120 kDa against a 30 kDa band on SDS-PAGE.

A word on the stoichiometry N: it is a count of units in the complex or per binding partner.

B1: SDR-WM99c short-chain dehydrogenase/reductase from Acinetobacter baumannii WM99c (enzyme, A. baumannii (strain WM99c))
chain: MNIFDVKDKYILITGASSGLGHHIAELFAKEGANIVICARRLERLKELESHIKNEYGVQVYTFALDVNDRSAVKDMLSSLEAEGVTIDVLINNAGVSDTKRFLDYNDEDWDKIVDTNLKAPWQCAQEVVQHMIKAERKGSIINITSILSQSTNLGVSPYCASKAGLRHLTEVMAVELARFGINVNAIAPGYMITEINEEYLTSEVGQQLLKKIPTRKFVEFDDLNGPLLLLASQAGQGITGIEIKVDGGHSAAPI
modifications: selenomethionine (cells grown in selenomethionine medium; Se sites located in the crystal)
notes: SDR-WM99c, hypothetical protein encoded in genomic island GI_12 of A. baumannii strain WM99c; total chain length 255 residues; also called SDR-WM99c dehydrogenase; source: E. coli BL21 (DE3) pLysS, grown in selenomethionine medium, purified (Ni-NTA); not shown: His6, N-terminal, kept
Consider B1, for which the “stoichiometry N” value amounted to 4.

(Values after paper PMC4188072, “Structure of a short-chain dehydrogenase/reductase (SDR) within a genomic island from a clinical strain of Acinetobacter baumannii” (Acta Crystallographica. Section F, Structural Biology …, 2014).)
